In patent publication US20010016194A1 (priority 1999, published 2001):

What was measured:
[1] = target: T1, Raf-1 proteins present in T-cell lysates (Homo sapiens, UniProt P04049); test: Cell-free system: binding of Raf-1 from T-cell lysates to FLAG-HMK-IL-2Rβ chain fusion proteins on anti-FLAG beads, anti-Raf-1 immunoblot; details: lysates from PHA activated peripheral blood mononuclear cells, FIG. 8b
T1 construct: endogenous in cells; host or cells: PHA-stimulated human peripheral blood mononuclear cells (T cells), lysate
Description: (ii) In order to study the interaction of IL-2Rβ chain with intracellular molecules, the FLAG-HMK-IL-2Rβ chain cytoplasmic domain fusion protein was purified from bacterial lysate using the M2 anti-FLAG monoclonal antibody in a standard affinity chromatography procedure. More specifically, bacterial lysate proteins were absorbed onto anti-FLAG (M2) affinity column (IBI-Kodak, New Haven, Conn., USA). After washing the column, the adsorbed proteins were eluted with either glycine buffer (pH 3) or FLAG peptide (10^−4M). Proteins in various fractions were analyzed for expected size (about 33 kDa) and purity after separation on SDS-PAGE and Commassie blue staining. The presence of a functional HMK recognition site was confirmed by phosphorylation of the purified 33 kDa IL-2Rβ chain fusion protein by HMK. More specifically, the eluted fusion proteins were tested for susceptibility to phosphorylation by incubation with the catalytic subunit of bovine heart muscle kinase (Sigma) (1 U/ul) in buffer containing 20 mM Tric-HCl, pH 7.5, 1 mM DTT, 100 mM NaCl, 10 mM MgCl2 and 1μCi [γ^32p] ATP for 30 min at 37° C. followed by SDS-PAGE and autoradiography. Purified FLAG-HMK-IL-2Rβ chain fusion proteins were used as an affinity reagent to probe for cytosolic proteins present in lysates of human T cells, metabolically labeled with [^35S ]-methionine, that bind to the IL-2Rβ chain. […] For [^35S]-methionine labeling, the cells were suspended at 4×10^7 cells/ml at 37° C. followed by addition of 0.5 mCi of [^35S]-methionine for 4 hours prior to lysis in Dounce homogenization buffer and application of the lysate to the affinity column. Several [^35S]-labeled proteins were retained by the FLAG-HMK-IL-2Rβ chain cytosolic domain fusion protein bound to the affinity column. One of these proteins was identified as Raf-1 by immunoblotting using a polyclonal antibody specific for the SP-63 peptide which corresponds to the C-terminal fragment of Raf-1. A molar excess of the competing SP-63 peptide blocked binding of the anti-SP-63 antibody to Raf-1.
Using the basic cell-free system described above, a number of FLAG-HMK-IL-2Rβ chain wild type FLAG-HMK-IL2Rβ chain deletion mutant proteins were then studied with respect to this specific interaction with Raf-i proteins present in T-cell lysates. These FLAG-HMK-IL2Rβ chain wild type (WT) and deletion mutants lacking certain defined domains of the IL-2Rβ chain were used to identify the IL-2Rβ chain domain involved in Raf-1 binding. Assay conditions were similar to those described above. […] In FIG. 1, there is shown, schematically, all of the constructs, i.e., FLAG-HMK-IL-2Rβ chain fusion proteins produced in transformed bacterial cells and used in this study. These FLAG-HMK- fusion proteins-coated beads were then used as affinity reagents to absorb Raf-1 proteins present in T-cell lysates. T-cell derived proteins bound to FLAG-HMK fusion proteins were then eluted using buffer containing FLAG peptide, separated on SDS-PAGE, transferred onto Immobilon membrane and blotted with anti-Raf-1 antibody.
The absorbed proteins were washed, eluted with FLAG peptide and probed for the presence of Raf-1 and 14-3-3 proteins on immunoblots. […] Washed cells (about 4×10^7) were lysed in Dounce homogenization buffer, centrifuged (15×10^3 xg for 15 min.) and supernatants applied onto washed anti-FLAG (M2) affinity column (IBI-Kodak) coated with bacterial lysates interacted with one of the FLAG-HMK fusion proteins. […]

[2] = test system: Raf-1; test: COS cells transfected with IL-2Rβ chain constructs, immunoprecipitated with Mik-β1, blotted with anti-Raf-1; type: cell-based; details: transfected COS cell lysates, FIG. 8a
Method: (§1) COS cells were transfected via the DOTAP method (Boehringer-Mannheim, Indianapolis, Ind.) following the manufacturer's instructions. The transfection cocktail contained 5 μg of DNA total and […] of DOTAP in a final volume of […] HBS (25mM HEPES, pH 7.4 and lOOmM NaCl). The COS cells were grown in DMEM medium supplemented with 10% heat-inactivated fetal calf serum, penicillin/streptomycin, 25mM HEPES, pH 7.4, and L-glutamine. The COS cells were exposed to the transfection cocktail for 12 hours, washed and subsequently cultured in fresh medium. 24 hours after washing approximately 3×10^5 cells were harvested and washed twice in chilled PBS. A lysis buffer was prepared and consisted of […] NaCl, 50mM Tris pH=7.4, 0.5% CHAPS (Pierce), […] (Sigma), supplemented with the following protease inhibitors immediately before use: aprotinin (Sigma) 2.5mg/ml, leupeptin (Boehringer-Mannheim) 2.5 mg/ml; Pepstatin A (Boehringer-Mannheim) […], PMSF (Sigma) […], NaF (Sigma) 100mm and sodium orthovanadate (Sigma) lmM. The transfected COS cells were lysed in 0.5 ml of lysis buffer on ice for 10 minutes, and subsequently centrifuged at 12,000 xg for 5 minutes, remaining supernatants were collected, and supplemented with pre-immune serum and protein G-agarose beads (BRL-Gibco, Gaithersburg, MD), which had been previously washed in lysis buffer. […]

[3] = test system: 14-3-3 proteins; test: COS cells transfected with IL-2Rβ chain constructs, immunoprecipitated with Mik-β1, blotted with anti-14-3-3; type: cell-based; details: transfected COS cell lysates, FIG. 8a
Method: as §1

B1: IL-2Rβ-WT: human IL-2Rβ chain wild type expressed in COS cells from pRcCMV (protein)
chain: AVNGTSQFTCFYNSRANISCVWSQDGALQDTSCQVHAWPDRRRWNQTCELLPVSQASWACNLILGAPDSQKLTTVDIVTLRVLCREGVRWRVMAIQDFKPFENLRLMAPISLQVVHVETHRCNISWEISQASHYFERHLEFEARTLSPGHTWEEAPLLTLKQKQEWICLETLTPDTQYEFQVRVKPLQGEFTTWSPWSQPLAFRTKPAALGKDTIPWLGHLLVGLSGAFGFIILVYLLINCRNTGPWLKKVLKCNTPDPSKFFSQLSSEHGGDVQKWLSSPFPSSSFSPGGLAPEISPLEVLERDKVTQLLLQQDKVPEPASLSSNHSLTSCFTNQGYFFFHLPDALEIEACQVYFTYDPYSEEDPDEGVAGAPTGSSPQPLQPLSGEDDAYCTFPSRDDLLLFSPSLLGGPSPPSTAPGGSGAGEERMPPSLQERVPRDWDPQPLGPPTPGVPDLVDFQPPPELVLREAGEEVPDAGPREGVSFPWSRPPGQGEFRALNARLPLNTDAYLSLQELQGQDPTHLV
binding to Raf-1 [1]: bound to Raf-1 | binding of Raf-1 [2]: bound | binding of 14-3-3 proteins [3]: bound
